Laboratory results taken from patent US20210315933A1 (TCR2 THERAPEUTICS, published 2021).
Read-outs that look alike come from different tables or passages of the source.

How the values were obtained:
human IL13Rα2 on cells [1] = target: T1, human IL13Rα2 on cells (human, UniProt Q14627 27-380); assay: flow cytometry; cell line not stated
T1 construct: whole, on cells; also called hIL13Rα2
T1 sequence (looked up): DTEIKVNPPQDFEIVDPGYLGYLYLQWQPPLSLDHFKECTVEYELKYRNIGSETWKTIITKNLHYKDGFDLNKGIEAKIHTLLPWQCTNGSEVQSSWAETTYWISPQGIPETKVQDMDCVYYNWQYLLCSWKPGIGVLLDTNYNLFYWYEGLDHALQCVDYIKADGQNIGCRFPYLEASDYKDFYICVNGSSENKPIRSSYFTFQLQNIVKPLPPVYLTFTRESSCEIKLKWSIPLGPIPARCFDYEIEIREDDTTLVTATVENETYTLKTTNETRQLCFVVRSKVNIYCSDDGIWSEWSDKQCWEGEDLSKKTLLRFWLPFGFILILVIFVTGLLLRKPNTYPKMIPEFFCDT

[2] = target: T2, recombinant human IL13Rα2 fused to an Fc domain of human IgG1 (hIL13Rα2-Fc) (human, UniProt Q14627 27-343, limits assumed); assay: Octet (BLI); nanobody on Ni-NTA sensor, IL13Rα2-Fc in solution
T2 construct: Bought construct (R&D Systems); The Fc can be removed by Factor Xa, so a Factor Xa site lies between the parts; not shown: Fc domain of human IgG1
T2 sequence (looked up): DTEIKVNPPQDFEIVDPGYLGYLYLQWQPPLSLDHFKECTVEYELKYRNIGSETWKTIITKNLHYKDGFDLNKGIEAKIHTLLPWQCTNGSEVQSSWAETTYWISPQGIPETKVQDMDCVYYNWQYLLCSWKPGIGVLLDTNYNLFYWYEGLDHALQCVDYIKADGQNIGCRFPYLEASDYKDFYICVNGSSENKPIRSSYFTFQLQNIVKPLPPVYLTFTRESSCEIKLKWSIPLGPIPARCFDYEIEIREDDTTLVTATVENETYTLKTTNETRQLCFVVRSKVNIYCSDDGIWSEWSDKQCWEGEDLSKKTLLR
Protocol: (§1) Two clones were chosen for humanization. […] Each humanized nanobody was analyzed by Octet at 500 nM on an Ni-NTA sensor, with three fold dilutions of antigen (IL13Rα2-Fc) at 125 nM, 41.66 nM, and 13.86 nM. A summary of the octed measurements for each of the humanized variants depicted in FIG. 1 is shown in Table 1 (clone 1) and Table 2 (clone 2).

[3] = target: T2, recombinant human IL13Rα2 fused to an …; assay: Octet KD relative to clone 1 parental
Protocol: as §1

[4] = target: T2, recombinant human IL13Rα2 fused to an …; assay: Octet KD relative to clone 2 parental
Protocol: as §1

human IL13Rα2 on cells [5] = target: T1, human IL13Rα2 on cells; assay: flow cytometry; cell line not stated; remark: listed apart in the source
[6] = target: T3, Human MUC16 polypeptide (MUC16 ectodomain peptide) (human); assay: Octet (BLI), NTA biosensor; His-tagged sdAb on sensor, MUC16 peptide titrated; 1:1 global fit
T3 construct: Analyte of the Octet titration and antigen of the binning assay; also called MUC16 peptide; MUC16^ecto peptide
T3 peptide: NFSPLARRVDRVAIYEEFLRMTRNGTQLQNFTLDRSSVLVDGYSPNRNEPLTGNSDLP
Protocol: FIGS. 5A-C show titration and measurement of binding affinity of parental (llama) and humanized anti-MUC16 single chain antibody (VHH). FIG. 5A is a diagram illustrating the experimental procedure by which the VHH binders produced in Example 5 are screened using an NTA biosensor (nickel coated surface). The His-tagged MUC16 sdAbs (3.25 μg/ml) are bound to the biosensor, and the MUC16 peptide is added at concentrations of 0, 1.56, 6.25, 25, 50, 100 or 200 nM. Buffer: 1× Octet; 1× Corning® Cellgro® PBS (cat. 21-040-CM) containing 0.02% Tween® 20 at 30° C. Sensors: Pall Forte Bio Dip & Read (cat. 18-5102). FIG. 5B (clone R3Mu4 parental and humanized variants) and FIG. 5C (clone R3Mu29 parental and humanized variants) show binding kinetics of the sdAbs to the MUC16 target (see also Table 1). These curves were used to derive binding affinity constant for each protein and to assess the effect of humanization on antigen binding.
The VHH binders produced in Example 5 are screened using an NTA biosensor (nickel column, see FIG. 5A for a drawing outlining the method). The His-tagged MUC16 sdAbs (3.25 μg/ml) are bound to the column, and then the MUC16 peptide is passed through the column at concentrations of 200, 100, 50, 25, 6.25, 1.56, and 0 nM. Buffer: 1× Corning® Cellgro® PBS pH 7.4 (cat. 21-040-CM) containing 0.02% Tween® 20) at 30° C. Sensors: Pall Forte Bio Dip & Read (cat. 18-5102).

B1: Llama single domain anti-IL13Rα2 Clone 1 (LSD1) (VHH)
VHH: DVQLVESGGGLVQPGGSLRLSCAASGFTSDYYIIGWFRQAPGKEREGVSCISSKYANTNYADSVKGRFTQSRGAAKNTVYLQMNALKPEDTAVYYCAADTRRYTCPDIATMHRNFDSWGQGTQVTVSS
notes: Captured on a Ni-NTA sensor in the Octet assay, so a His tag is implied; the tag is not described for this construct; also called parental; clone 1 parental
- Flow Cytometry MFI (human IL13Rα2 on cells [1]): 2270 MFI
- Kd [2]: 0.63 nM
- KD fold difference [3]: 1 fold

B2: anti-IL13Rα2 Clone 2 humanized variant 2-h6 (VHH)
VHH: EVQLVESGGGLVQPGGSLRLSCAASGFASDDYIMGWFRQAPGKGLEGVSCISSRYANTVYADSVKGRFTISRDNAKNTLYLQMNSLRPEDTAVYYCAMDSRRVTCPEISTMHRNFDSWGQGTQVTVSS
- KD fold difference [4]: 1.4 fold
- Kd [2]: 1130 nM
- Flow Cytometry MFI (human IL13Rα2 on cells [5]): 2870 MFI

B3: Humanized Llama Single domain anti-IL13Rα2 Clone 1-h8 (H1-LSD1) (VHH)
VHH: EVQLVESGGGLVQPGGSLRLSCAASGFTSDYYIMGWFRQAPGKGLEGVSCISSKYANTYYADSVKGRFTISRDNAKNTLYLQMNSLRPEDTAVYYCAADTRRYTCPDIATMHRNFDSWGQGTLVTVSS
notes: Captured on a Ni-NTA sensor, so a His tag is implied; the tag is not described
- Flow Cytometry MFI (human IL13Rα2 on cells [1]): 1240 MFI
- Kd [2]: 1.94 nM
- KD fold difference [3]: 3.1 fold

B4: Humanized Llama single domain anti-IL13Rα2 Clone 2-h10 (H2-LSD2) (VHH)
VHH: EVQLVESGGGLVQPGGSLRLSCAASGFASDDYIMGWVRQAPGKGLEWVSCISSRYANTYYADSVKGRFTISRDNAKNTLYLQMNSLRPEDTAVYYCAMDSRRVTCPEISTMHRNFDSWGQGTLVTVSS
notes: as for B3
- KD fold difference [4]: 4.1 fold
- Kd [2]: 3310 nM
- Flow Cytometry MFI (human IL13Rα2 on cells [5]): 1120 MFI

B5: Humanized Llama Single domain anti-IL13Rα2 Clone 2-h8 (H1-LSD2) (VHH)
VHH: EVQLVESGGGLVQPGGSLRLSCAASGFASDDYIMGWFRQAPGKGLEGVSCISSRYANTYYADSVKGRFTISRDNAKNTLYLQMNSLRPEDTAVYYCAMDSRRVTCPEISTMHRNFDSWGQGTLVTVSS
notes: as for B3
- KD fold difference [4]: 1.2 fold
- Kd [2]: 950 nM
- Flow Cytometry MFI (human IL13Rα2 on cells [5]): 2020 MFI

B6: R3MU4h13 (98.9% human) (VHH)
VHH: EVQLVESGGGLVQPGGSLRLSCAASGRTVSSLFMGWVRQAPGKGLEWVSAISRYSLYTYYADSVKGRFTISRDNAKNTLYLQMNSLRPEDTAVYYCASKLEYTSNDYDSWGQGTLVTVSS
notes: not shown: His tag (His-tagged MUC16 sdAbs)
- Kd [6]: 36.2 nM

B7: R3MU29h14 (97.8% human) (VHH)
VHH: EVQLVESGGGLVQPGGSLRLSCAASGRAVSSLFMGWFRQAPGKGLEWVSAISRYSLYTYYADSVKGRFTISRDNAKNTLYLQMNSLRPEDTAVYYCASKLEYTSNDYDSWGQGTLVTVSS
notes: also called R3Mu29_h14#13; not shown: His tag (His-tagged MUC16 sdAbs)
- Kd [6]: 36.4 nM

B8: R3MU29h15 (98.9% human) (VHH)
VHH: EVQLVESGGGLVQPGGSLRLSCAASGRAVSSLFMGWVRQAPGKGLEWVSAISRYSLYTYYADSVKGRFTISRDNAKNTLYLQMNSLRPEDTAVYYCASKLEYTSNDYDSWGQGTLVTVSS
notes: also called R3Mu29_h15#16; not shown: His tag (His-tagged MUC16 sdAbs)
- Kd [6]: 22.9 nM

B9: single domain anti-MUC16 binder R3MU4 (VHH)
VHH: QVQLQESGGGLVQAGGSLRLSCAASGRTVSSLFMGWFRQAPGKERELVAAISRYSLYTYYADSVKGRFTISADNAKNAVYLQMNSLKPEDTAVYYCASKLEYTSNDYDSWGQGTQVTVSS
notes: also called Parental R3Mu4; parental (llama) R3Mu4; not shown: C-terminal tags (pMECS GG: HA tag and His6 tag; His-tagged in the Octet assay)
- Kd [6]: 10.2 nM

B10: Single domain anti-MUC16 R3MU29 (VHH)
VHH: QVQLQESGGGLVQAGDSLRLSCAASGRAVSSLFMGWFRRAPGKERELVAAISRYSLYTYYADSVKGRFTISADNAKNAVYLQMNSLKPEDTAVYYCASKLEYTSNDYDSWGQGTQVTVSS
notes: also called Parental R3Mu29; parental (llama) R3Mu29; not shown: C-terminal tags (pMECS GG: HA tag and His6 tag; His-tagged in the Octet assay)
- Kd [6]: 6.3 nM

B11: R3MU4h11 (96.7% human) (VHH)
VHH: EVQLVESGGGLVQPGGSLRLSCAASGRTVSSLFMGWFRQAPGKGLELVSAISRYSLYTYYADSVKGRFTISRDNAKNTLYLQMNSLRPEDTAVYYCASKLEYTSNDYDSWGQGTLVTVSS
notes: also called R3Mu4 h11#2; not shown: His tag (His-tagged MUC16 sdAbs)
- Kd [6]: 10.9 nM

B12: R3MU29h13 (96.7% human) (VHH)
VHH: EVQLVESGGGLVQPGGSLRLSCAASGRAVSSLFMGWFRQAPGKGLELVSAISRYSLYTYYADSVKGRFTISRDNAKNTLYLQMNSLRPEDTAVYYCASKLEYTSNDYDSWGQGTLVTVSS
notes: also called R3Mu29_h13#11; not shown: His tag (His-tagged MUC16 sdAbs)
- Kd [6]: 8.3 nM

B13: R3MU4h12 (97.8% human) (VHH)
VHH: EVQLVESGGGLVQPGGSLRLSCAASGRTVSSLFMGWFRQAPGKGLEWVSAISRYSLYTYYADSVKGRFTISRDNAKNTLYLQMNSLRPEDTAVYYCASKLEYTSNDYDSWGQGTLVTVSS
notes: also called R3Mu4 h12#2; not shown: His tag (His-tagged MUC16 sdAbs)
- Kd [6]: 94.6 nM

B14: Llama single domain anti-IL13Rα2 Clone 2 (LSD2) (VHH)
VHH: DVQLVESGGGLVQPGGSLRLSCEASGFASDDYIIGWFRQAPGKEREGVSCISSRYANTVYTDSVKGRFRISRGTAKNTVYLQMSALKPEDTAVYYCAMDSRRVTCPEISTMHRNFDSWGQGTQVTVSS
notes: Captured on a Ni-NTA sensor, so a His tag is implied; the tag is not described; also called 2-parental; clone 2 parental
- KD fold difference [4]: 1 fold
- Kd [2]: 810 nM
- Flow Cytometry MFI (human IL13Rα2 on cells [5]): 3650 MFI

B15: anti-IL13Rα2 Clone 2 humanized variant 2-h3 (VHH)
VHH: EVQLVESGGGLVQPGGSLRLSCAASGFASDDYIMGWFRQAPGKGLEGVSCISSRYANTVYADSVKGRFTISRGNAKNTVYLQMSSLRPEDTAVYYCAMDSRRVTCPEISTMHRNFDSWGQGTQVTVSS
- KD fold difference [4]: 1.1 fold
- Kd [2]: 910 nM
- Flow Cytometry MFI (human IL13Rα2 on cells [5]): 3070 MFI

B16: anti-IL13Rα2 Clone 2 humanized variant 2-h4 (VHH)
VHH: EVQLVESGGGLVQPGGSLRLSCAASGFASDDYIMGWFRQAPGKGLEGVSCISSRYANTVYADSVKGRFTISRGNAKNTVYLQMNSLRPEDTAVYYCAMDSRRVTCPEISTMHRNFDSWGQGTQVTVSS
- KD fold difference [4]: 1.2 fold
- Kd [2]: 960 nM
- Flow Cytometry MFI (human IL13Rα2 on cells [5]): 3060 MFI

B17: anti-IL13Rα2 Clone 2 humanized variant 2-h1 (VHH)
VHH: EVQLVESGGGLVQPGGSLRLSCAASGFASDDYIMGWFRQAPGKGLEGVSCISSRYANTVYADSVKGRFRISRGNAKNTVYLQMSALRPEDTAVYYCAMDSRRVTCPEISTMHRNFDSWGQGTQVTVSS
- KD fold difference [4]: 1.1 fold
- Kd [2]: 930 nM

B18: anti-IL13Rα2 Clone 2 humanized variant 2-h5 (VHH)
VHH: EVQLVESGGGLVQPGGSLRLSCAASGFASDDYIMGWFRQAPGKGLEGVSCISSRYANTVYADSVKGRFTISRDNAKNTVYLQMNSLRPEDTAVYYCAMDSRRVTCPEISTMHRNFDSWGQGTQVTVSS
- KD fold difference [4]: 1.1 fold
- Kd [2]: 870 nM
- Flow Cytometry MFI (human IL13Rα2 on cells [5]): 1450 MFI
